Data as given in patent EP4703388A1 (Jiangsu Hengrui Pharmaceuticals Co., Ltd., dated 2024).
Residue numbers refer to the chain shown, from its start.

T1: cyno TF ECD-His (cTF-his) (monkey (cyno))
T1 construct: also called bio-cTF-his; monkey TF-His protein
T1 chain: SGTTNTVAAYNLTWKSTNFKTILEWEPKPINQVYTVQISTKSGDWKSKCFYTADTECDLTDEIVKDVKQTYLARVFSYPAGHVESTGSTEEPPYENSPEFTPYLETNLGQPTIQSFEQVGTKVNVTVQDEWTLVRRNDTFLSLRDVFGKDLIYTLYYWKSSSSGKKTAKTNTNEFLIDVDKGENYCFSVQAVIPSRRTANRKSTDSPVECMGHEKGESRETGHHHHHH

B1: hu10H10-29 (antibody, V domains shown)
VH: EVQLVQSGSELKKPGASVKVSCKASGYTFITYWIEWVKQRPGQGLEWMGDILPYSGSTNYNENFKGRATFSADTSVSTAYLQISSLKAEDTAVYYCARSGYYGNSGFAYWGQGTLVTVSS
VL: DIQMTQSPSSLSASVGDRVTITCKSSQSLLSSGNQKNYLTWYQQKPGKAPKLLIYWASTRESGVPSRFSGSGSGTDFTLTISSLQPEDFATYYCQNDYTYPLTFGQGTKLEIK
notes: H11+L1; Full-length IgG
B2: hu10H10-33 (antibody, V domains shown)
VH: B1 VH with Y54G
VL: B1 VL with S62E
notes: H7+L3; Full-length IgG
B3: hu10H10-37 (antibody, V domains shown)
VH: B1 VH
VL: B1 VL with S62E
notes: H11+L3; Full-length IgG
B4: hu10H10-35 (antibody, V domains shown)
VH: B1 VH with I30R, Y54G
VL: B1 VL with S62E
notes: H9+L3; Full-length IgG
B5: hu10H10-39 (antibody, V domains shown)
VH: B1 VH with Y54G, S57W
VL: B1 VL with S62E
notes: H13+L3 (printed bu10H10-39); Full-length IgG; also called bu10H10-39
B6: hu10H10-53 (antibody, V domains shown)
VH: B1 VH
VL: B1 VL with G33S, S62E
notes: H11+L6; Full-length IgG
B7: hu10H10-36 (antibody, V domains shown)
VH: B1 VH with T31E, Y54G
VL: B1 VL with S62E
notes: H10+L3; Full-length IgG
B8: hu10H10-58 (antibody, V domains shown)
VH: B1 VH with K38R, Y54G, T69V
VL: B1 VL with G33S, S62E
notes: H2+L6; Full-length IgG
B9: hu10H10-38 (antibody, V domains shown)
VH: B1 VH with Y54G, S55H
VL: B1 VL with S62E
notes: H12+L3; Full-length IgG
B10: hu10H10-40 (antibody, V domains shown)
VH: B1 VH with K38R, Y54G, S57W, T69V
VL: B1 VL with S62E
notes: H14+L3 (printed bu10H10-40); Full-length IgG; also called bu10H10-40
B11: hu10H10-34 (antibody, V domains shown)
VH: B1 VH with Y27R, K38R, Y54G
VL: B1 VL with S62E
notes: H8+L3; Full-length IgG
B12: hu10H10-57 (antibody, V domains shown)
VH: B1 VH with K38R, Y54G, T69V
VL: B1 VL with S31D, S62E
notes: H2+L5; Full-length IgG
B13: chimeric antibody CH310 (antibody, human IgG1, kappa, V domains shown)
VH: EVQLQQSGPELVKPGASLKISCKASGYSFTGYYMNWVKQSPEKSLEWIGEINPSTGGSTYNQKFKAKATLTVDQSSNTAYMQLKSLTSEDSAVYYCARRELGGPFGYWGQGTPVTVSA
VL: SIVMTQTPKFLLVSSGDRVTITCKASQSVSNGIAWYQQKPGQSPKLLIYFASNRYTGVPDRFTGSGYGTDFTFTISTVQAEDLAVYFCQQDYSSPWTFGGGTKLEIKR
notes: Murine 310# variable regions + human constant regions
B14: hu67-11 (antibody, human IgG1, kappa, V domains shown)
VH: EVQLQESGPGLVKPSQTLSLTCTVSGFSLTNYGVNWIRQPPGKGLEWIGVIWSRGNTDYNAAFISRVTISKDTSKNQVSLKLSSVTAADTAVYYCARKDAVVATDALDYWGQGTTVTVSS
VL: DIQMTQSPSSLSASVGDRVTITCKASQDVSTAVAWYQQKPGKAPKLLIYSTSYRYTGVPSRFSGSGSGTDFTFTISSLQPEDIATYYCQQHYSTPYTFGGGTKVEIKR
B15: hu310-4 (antibody, human IgG1, kappa, V domains shown)
VH: EVQLVQSGAEVKKPGASVKVSCKASGYSFTGYYMNWVRQAPGQGLEWMGEINPSTGGSTYNQKFKARVTMTVDQSTSTVYMELSSLRSEDTAVYYCARRELGGPFGYWGQGTTVTVSS
VL: B14 VL with D28S, T31N, A32G, V33I, S50F, T51A, Y53N, H91D, T94S, Y96W
B16: hu310-16 (antibody, human IgG1, kappa, V domains shown)
VH: B15 VH with M70L, S77N, V79A
VL: SIQMTQSPSSLSASVGDRVTITCKASQSVSTGIAWYQQKPGKSPKLLIYFASNRYTGVPSRFSGSGYGTDFTFTISSLQPEDIATYYCQQDYSSPWTFGGGTKVEIKR
B17: hu310-13 (antibody, human IgG1, kappa, V domains shown)
VH: B15 VH with M70L, S77N, V79A
VL: B16 VL with T31N
B18: hu310-12 (antibody, human IgG1, kappa, V domains shown)
VH: B15 VH with M70L, S77N, V79A
VL: B16 VL with S1D, T31N, S43A, Y67S
B19: hu310-6 (antibody, human IgG1, kappa, V domains shown)
VH: B15 VH
VL: B16 VL with T31Q
B20: hu310-14 (antibody, human IgG1, kappa, V domains shown)
VH: B15 VH with M70L, S77N, V79A
VL: B16 VL with T31Q
B21: hu310-15 (antibody, human IgG1, kappa, V domains shown)
VH: B15 VH with M70L, S77N, V79A
VL: B16 VL with T31S
B22: hu310-7 (antibody, human IgG1, kappa, V domains shown)
VH: B15 VH
VL: B16 VL with T31S
B23: hu67Y118 (antibody, human IgG1, kappa, V domains shown)
VH: B14 VH with P40S, I64K, V101I
VL: B14 VL with S30Q, S52H, Q89L, H91L, Y92I, S93G, T94V, Y96H
B24: hu310-8 (antibody, human IgG1, kappa, V domains shown)
VH: B15 VH
VL: B16 VL

Each binder was assayed against T2, human tissue factor (TF) on MDA-MB-231, NCI-H358 and HCT116 cells (human, UniProt P13726 33-295) (assay: flow cytometry on H358 cells).
T2 construct: whole, on cells; also called TF antigen; CD142

| EC50 | Binder |
| --- | --- |
| 0.45 nM | B1 |
| 0.96 nM | B2 |
| 0.35 nM | B3 |
| 0.79 nM | B4 |
| 0.42 nM | B5 |
| 0.41 nM | B6 |
| 0.96 nM | B7 |
| 1.09 nM | B8 |
| 0.81 nM | B9 |
| 0.55 nM | B10 |
| 0.99 nM | B11 |
| 1.02 nM | B12 |

What follows are binders tested against T2, human tissue factor (TF) on MDA-MB-231, … (assay: flow cytometry on MDA-MB-231 cells).

| EC50 | Binder |
| --- | --- |
| 1.84 nM | B13 |
| 26.3 nM | B14 |
| 2.11 nM | B15 |
| 2.26 nM | B16 |
| 1.39 nM | B17 |
| 1.95 nM | B18 |
| 2.56 nM | B19 |
| 1.76 nM | B20 |
| 1.98 nM | B21 |
| 2.08 nM | B22 |
| 7.05 nM | B23 |
| 1.73 nM | B24 |
| 1.09 nM | B1 |
| 1.09 nM | B2 |
| 1.07 nM | B3 |
| 1.09 nM | B4 |
| 1.1 nM | B5 |
| 1.09 nM | B6 |
| 2.14 nM | B7 |
| 1.43 nM | B8 |
| 1.14 nM | B9 |
| 1.07 nM | B10 |
| 1.12 nM | B11 |
| 1.12 nM | B12 |

What follows are binders tested against T3, human TF ECD-His (hTF-his) (human, UniProt P13726 33-251) (assay: SPR Biacore T200, antibody on Protein A chip, TF-His as analyte, 1:1 model).
T3 construct: also called bio-hTF-his; human TF-His protein

| Kd | koff | kon | Binder |
| --- | --- | --- | --- |
| 23.2 nM | 0.00949 s⁻¹ | 409000 M⁻¹ s⁻¹ | B13 |
| 16.5 nM | 0.000675 s⁻¹ | 40900 M⁻¹ s⁻¹ | B14 |
| 0.545 nM | 7.45e-05 s⁻¹ | 137000 M⁻¹ s⁻¹ | B1 |
| 0.47 nM | 7.34e-05 s⁻¹ | 156000 M⁻¹ s⁻¹ | B6 |

Molecular target: T1, cyno TF ECD-His (cTF-his)
Experiment: as above

| Kd | koff | kon | Binder |
| --- | --- | --- | --- |
| 23.5 nM | 0.00767 s⁻¹ | 327000 M⁻¹ s⁻¹ | B13 |
| 8.95 nM | 0.000243 s⁻¹ | 27100 M⁻¹ s⁻¹ | B14 |
| 0.642 nM | 9.83e-05 s⁻¹ | 153000 M⁻¹ s⁻¹ | B1 |
| 0.375 nM | 6.77e-05 s⁻¹ | 181000 M⁻¹ s⁻¹ | B6 |
